# How the values were obtained:
# [1] = biological target: human ILT7 (human) (UniProt P59901); test: flow cytometry of human PBMCs with APC-labeled antibody at 2.5 µg/ml, histogram gated on BDCA-4+ pDCs (lower row)
# [2] = biological target: human ILT7 (human) (UniProt P59901); test: flow cytometry dot plot of human PBMCs, BDCA-4 against APC-labeled antibody (upper row); upper left quadrant (BDCA-4+ APC-) 0.36
# [3] = biological target: human ILT7 (human) (UniProt P59901); test: FACS dot plot of human PBMCs, CD304-PE against AF647-labeled antibody (lower left panel); upper left quadrant (CD304+ AF647-) 0.532
# human ILT7 (human), sequence (P59901 24-499): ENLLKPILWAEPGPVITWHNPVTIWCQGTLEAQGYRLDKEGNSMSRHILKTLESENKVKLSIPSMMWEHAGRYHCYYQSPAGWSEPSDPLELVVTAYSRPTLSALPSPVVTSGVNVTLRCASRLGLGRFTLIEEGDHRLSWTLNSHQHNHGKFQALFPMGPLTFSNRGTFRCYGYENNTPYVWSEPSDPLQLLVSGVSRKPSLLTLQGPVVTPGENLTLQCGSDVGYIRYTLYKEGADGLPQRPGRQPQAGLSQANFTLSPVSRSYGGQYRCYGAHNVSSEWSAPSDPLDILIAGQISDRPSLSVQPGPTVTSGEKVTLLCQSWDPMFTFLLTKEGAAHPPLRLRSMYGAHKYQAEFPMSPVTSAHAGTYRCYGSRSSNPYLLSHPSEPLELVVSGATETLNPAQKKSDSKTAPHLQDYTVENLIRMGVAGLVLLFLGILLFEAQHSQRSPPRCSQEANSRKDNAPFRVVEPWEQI
Substance,percent of pDCs (BDCA-4+ cells) in the APC-positive gate [1],percent of PBMCs in the BDCA-4+ APC+ quadrant (upper right) [2],percent of PBMCs in the CD304+ AF647+ quadrant (upper right) [3]
isotype control R347 (antibody),0.59%,0.000963%,–
afucosylated isotype control R347 (antibody),–,–,0.0153%

# Reference: US20220144940A1
